Laboratory results as given in patent publication US6403765B1, “Truncated Apaf-1 and methods of use thereof” (Thomas Jefferson University, priority 1998, dated 2002).

T1: procaspase-9 (Homo sapiens, UniProt P55211)
T1 construct: schematic representation of full length procaspase-9; made in house; host or cells: coupled in vitro transcription/translation in rabbit reticulocyte lysate (TNT Kit, Promega)
T1 sequence (P55211 1-416): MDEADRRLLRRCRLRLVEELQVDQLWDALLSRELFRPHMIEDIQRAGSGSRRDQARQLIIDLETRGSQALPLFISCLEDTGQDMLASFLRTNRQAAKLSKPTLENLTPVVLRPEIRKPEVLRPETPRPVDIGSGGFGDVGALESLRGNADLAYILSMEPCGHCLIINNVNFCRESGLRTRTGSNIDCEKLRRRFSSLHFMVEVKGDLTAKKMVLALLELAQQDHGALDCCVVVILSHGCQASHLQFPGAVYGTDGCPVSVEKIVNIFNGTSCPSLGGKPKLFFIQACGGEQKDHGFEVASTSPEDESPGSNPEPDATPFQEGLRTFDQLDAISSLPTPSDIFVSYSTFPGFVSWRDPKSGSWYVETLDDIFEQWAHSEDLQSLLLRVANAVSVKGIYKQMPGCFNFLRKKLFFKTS


Target: T1, procaspase-9
Experiment: In vitro caspase 9 activation assay: recombinant Apaf-1 variants incubated with in vitro translated procaspase-9
Assay type: biochemical
Conditions: bacterial lysates with truncated Apaf-1 variants, FIG. 2B
Protocol: SDS sample buffer was then added to each sample, boiled and subjected to SDS-PAGE analysis followed by autoradiography. In FIG. 2A procaspase-9 was in vitro translated in the presence of ^35S-methionine. Following translation procaspase-9 was desalted by gel filtration through a biospin column (BioRad) to remove unincorporated methionine and free nucleotides. Desalted procaspase-9 was then incubated with 200 ng Ni^2+-affinity purified bacterially expressed recombinant Apaf-530 (WT or K149R mutant) in the presence or absence of cytochrome c or dATP or both for 2 h at 30° C. A mock sample containing Ni^2+-affinity purified material from bacteria transformed with an empty vector was used as a negative control. Following incubation the products were analyzed by SDS-PAGE and autoradiography. In FIG. 2B^35S-labeled procaspase-9 (as described above) was incubated with bacterial lysates containing truncated Apaf-1 variants as indicated and then analyzed as above (2B upper panel). The bacterial lysates were analyzed by SDS-PAGE and immunoblotted with an Apaf-1 antibody which recognizes the N-terminus of Apaf-1 (lanes 2-6) and an anti T7-tag antibody (lanes 7-8) to confirm expression and equivalent concentration of the different Apaf-1 variants (2B lowerpanel). The molecular mass markers are indicated to the right of the lower panel.
^35S-labeled caspases were obtained by in vitro translation in the presence of ^35S-methionine using a coupled transcription/translation system in rabbit reticulocyte lysate using TNT Kit (Promega) according to the manufacturer's recommendations.
To determine the role of the WD-40 repeat in the mechanism of Apaf-1-induced processing of procaspase-9, truncated Apaf-1 (Apaf-530) lacking its WD-40 repeats (FIG. 1) was expressed and purified. To reconstitute a recombinant caspase-9 activation system, the truncated Apaf-530 was incubated with in vitro translated recombinant procaspase-9 in the presence or absence of cytochrome c and dATP. […] It was previously shown that mutation of CED-4 K165R which is required for nucleotide binding destroys its activity (Chinnaiyan et al., Nature 388:728-729, 1997; Jarnes et al., Curr. Biol. 7:246-252, 1997; Seshagiri and Miller, Curr. Biol. 7:455-460, 1997). […] Therefore, either binding of Apaf-1 to cytochrome c and dATP or deletion of the repeats could induce a conformational change enabling Apaf-1 to bind and process procaspase-9.
In FIG. 3, ^35S-labeled WT or mutant D330A, D315A or C287A mutants of procaspase-9 or prodomainless procaspase-9 (Δpro, residues 134-416) were incubated with buffer (lanes 1, 4, 7, 10, 13), purified Apaf-530 (lanes 2, 5, 8, 11, 14) or mock purified material (lanes, 3, 6, 9, 12, 15) and then analyzed by SDS-PAGE and autoradiography.

| Molecule | activity of the Apaf-1 variant in promoting activation of procaspase-9 | less activity than Apaf-530 in promoting procaspase-9 processing |
| --- | --- | --- |
| Apaf-350: truncated Apaf-1, residues 1-350 (protein, UniProt O14727 1-350, looked up, fragment) MDAKARNCLLQHREALEKDIKTSYIMDHMISDGFLTISEEEKVRNEPTQQQRAAMLIKMILKKDNDSYVSFYNALLHEGYKDLAALLHDGIPVVSSSSGKDSVSGITSYVRTVLCEGGVPQRPVVFVTRKKLVNAIQQKLSKLKGEPGWVTIHGMAGCGKSVLAAEAVRDHSLLEGCFPGGVHWVSVGKQDKSGLLMKLQNLCTRLDQDESFSQRLPLNIEEAKDRLRILMLRKHPRSLLILDDVWDSWVLKAFDSQCQILLTTRDKSVTDSVMGPKYVVPVESSLGKEKGLEILSLFVNMKKADLPEQAHSIIKECKGSPLVVSLIGALLRDFPNRWEYYLKQLQNKQF | further reduced its activity |  |
| Apaf-WD: WD-40 repeat region of Apaf-1, residues 530-1194 (protein, UniProt O14727 530-1194, looked up, fragment) RHILDEKDCAVSENFQEFLSLNGHLLGRQPFPNIVQLGLCEPETSEVYQQAKLQAKQEVDNGMLYLEWINKKNITNLSRLVVRPHTDAVYHACFSEDGQRIASCGADKTLQVFKAETGEKLLEIKAHEDEVLCCAFSTDDRFIATCSVDKKVKIWNSMTGELVHTYDEHSEQVNCCHFTNSSHHLLLATGSSDCFLKLWDLNQKECRNTMFGHTNSVNHCRFSPDDKLLASCSADGTLKLWDATSANERKSINVKQFFLNLEDPQEDMEVIVKCCSWSADGARIMVAAKNKIFLFDIHTSGLLGEIHTGHHSTIQYCDFSPQNHLAVVALSQYCVELWNTDSRSKVADCRGHLSWVHGVMFSPDGSSFLTSSDDQTIRLWETKKVCKNSAVMLKQEVDVVFQENEVMVLAVDHIRRLQLINGRTGQIDYLTEAQVSCCCLSPHLQYIAFGDENGAIEILELVNNRIFQSRFQHKKTVWHIQFTADEKTLISSSDDAEIQVWNWQLDKCIFLRGHQETVKDFRLLKNSRLLSWSFDGTVKVWNIITGNKEKDFVCHQGTVLSCDISHDATKFSSTSADKTAKIWSFDLLLPLHELRGHNGCVRCSAFSVDSTLLATGDDNGEIRIWNVSNGELLHLCAPLSEEGAATHGGWVTDLCFSPDGKMLIS | inactive |  |
| Apaf-420: truncated Apaf-1, residues 1-420, minimal conserved sequence between Apaf-1 and CED-4 (protein, UniProt O14727 1-420, looked up, fragment) MDAKARNCLLQHREALEKDIKTSYIMDHMISDGFLTISEEEKVRNEPTQQQRAAMLIKMILKKDNDSYVSFYNALLHEGYKDLAALLHDGIPVVSSSSGKDSVSGITSYVRTVLCEGGVPQRPVVFVTRKKLVNAIQQKLSKLKGEPGWVTIHGMAGCGKSVLAAEAVRDHSLLEGCFPGGVHWVSVGKQDKSGLLMKLQNLCTRLDQDESFSQRLPLNIEEAKDRLRILMLRKHPRSLLILDDVWDSWVLKAFDSQCQILLTTRDKSVTDSVMGPKYVVPVESSLGKEKGLEILSLFVNMKKADLPEQAHSIIKECKGSPLVVSLIGALLRDFPNRWEYYLKQLQNKQFKRIRKSSSYDYEALDEAMSISVEMLREDIKDYYTDLSILQKDVKVPTKVLCILWDMETEEVEDILQEFVN |  | ~90% |
